# Target: T1, SARS-CoV-2 RBD (SARS-CoV-2, UniProt P0DTC2 319-541)
# T1 construct: domain: RBD
# Test: ELISA on recombinant spike subdomains
binder,measurement,value
"71281-31 (antibody, V domains shown) VH: QVQLVESGGGVVQPGRSLRLSCAASGFTFSRYGMHWVRQAPGKGLEWVAFISYDGDNKYYADSVKGRFTISRDNSKNTLYLQMDSLRTEDTAVYYCAKDPTARLGYCRGGSCYLADYWGQGTLVTVSS VL: SYVLTQPPSVSVAPAQTARITCGGNNIESKSVHWYQQKPGQAPVLVVYENSDRPSGIPERFSGSNSGNMATLTISRVEAGDEADYYCQVWESSSDHVIFGGGTKLTVL",binding result,binds

# — patent publication US20260234224A1 (VANDERBILT UNIVERSITY, published 2026)
